Article PMC10060354, “Discovery of a small molecule ligand of FRS2 that inhibits invasion and tumor growth” (Cellular Oncology, 2022)
Ends that are not written are not given here.

T1: GB1-FRS2-PTB (Homo sapiens, UniProt Q8WU20)
T1 construct: FRS2-PTB 11-140aa; 6xHis (N); made in house; host or cells: E. coli BL21 (DE3)
T1 sequence (Q8WU20 11-140): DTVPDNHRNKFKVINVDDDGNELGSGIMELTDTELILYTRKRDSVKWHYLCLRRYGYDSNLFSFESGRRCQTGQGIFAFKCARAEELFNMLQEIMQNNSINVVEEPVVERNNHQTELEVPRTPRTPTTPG

T2: FRS2_PTB (Homo sapiens, UniProt Q8WU20)
T2 construct: FRS2-PTB 11-140aa; 6xHis; made in house; host or cells: E. coli BL21 (DE3)
T2 sequence (Q8WU20 11-140): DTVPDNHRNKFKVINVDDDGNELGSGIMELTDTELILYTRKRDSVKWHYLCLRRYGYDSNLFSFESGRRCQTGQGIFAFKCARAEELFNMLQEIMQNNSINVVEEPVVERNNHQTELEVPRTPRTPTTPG

T3: GB1-FRS2_PTB (human, UniProt Q8WU20 15-135, 2nd Generation BLUE-NHS dye (in the MST only))
T3 construct: Fibroblast growth factor receptor substrate 2 (FRS2), human, PTB domain, residues 15 to 135; Vector pEM3BT2; also called GB1-fused PTB domain; source: E. coli BL21 (DE3), purified (Ni-NTA); not shown: His6, N-terminal, kept
T3 sequence (looked up): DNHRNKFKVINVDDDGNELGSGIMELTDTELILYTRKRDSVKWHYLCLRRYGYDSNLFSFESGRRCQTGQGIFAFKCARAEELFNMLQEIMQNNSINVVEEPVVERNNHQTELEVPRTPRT

T4: FRS2_PTB (PTB domain of human FRS2) (human, UniProt Q8WU20 15-135)
T4 construct: Fibroblast growth factor receptor substrate 2 (FRS2), human, PTB domain, residues 15 to 135 as the methods state for the PTB domain constructs; The limits 15-135 are stated in the methods sentence that describes the GB1 fusions; also called FRS2-PTB domain; PTB domain of FRS2; source: E. coli BL21 (DE3), purified (Ni-NTA)
T4 sequence (looked up): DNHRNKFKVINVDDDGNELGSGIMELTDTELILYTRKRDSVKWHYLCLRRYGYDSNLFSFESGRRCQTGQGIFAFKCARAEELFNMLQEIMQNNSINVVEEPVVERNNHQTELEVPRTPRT


How the values were obtained:
GB1-FRS2-PTB = biological target: T1, GB1-FRS2-PTB; assay: nanoDSF with GB1-fused PTB domain; type: binding
Experimental: Assay establishment and pilot nanoDSF experiments were performed with a Tycho® system. Each experiment was performed by mixing the protein and ligand of interest at a 1:1 ratio and subsequent incubation for 15–30 min at room temperature. Controls of protein alone and ligand alone in identical buffer compositions as for the complex were measured accordingly. The temperature gradient ranged from 35 to 95 °C, and the heating rate was 30 °C/min. Inflection temperatures TI were calculated from the first derivative of the spectra obtained at the ratio of the signals at 350 nm to those at 330 nm. ΔTI of a complex was calculated as following: ΔTI,complex = TI,complex – TI,protein. […]
Purified FRS2_PTB or GB1_FRS2_PTB protein tagged with 6 × Histidine residues and the B1 immunoglobulin binding domain of the streptococcal protein G (GB1) were diluted in the protein buffer (100 mM sodium phosphate, 50 mM NaCl, 0.5 mM EDTA, 50 mM arginine, 1 mM TCEP, pH 7.0) to 30 μM, GB-1 to 40 μM. […] Each compound was measured in triplicates. Protein controls were measured in six replicates in the beginning. The quality of the screen was assessed by the Z-factor. nanoDSF validation studies were performed on a Prometheus® system in high sensitivity capillaries. […] Each compound was measured in triplicates. […] FGFR_PEP was measured against both GB1-FRS2_PTB and GB1, all other compounds only against GB1-FRS2_PTB. […]

FRS2_PTB = biological target: T2, FRS2_PTB; assay: nano differential scanning fluorimetry (nanoDSF); type: binding; details: 500 μM ligand
Experimental: Assay establishment and pilot nanoDSF experiments were performed with a Tycho® system. Each experiment was performed by mixing the protein and ligand of interest at a 1:1 ratio and subsequent incubation for 15–30 min at room temperature. Controls of protein alone and ligand alone in identical buffer compositions as for the complex were measured accordingly. The temperature gradient ranged from 35 to 95 °C, and the heating rate was 30 °C/min. Inflection temperatures TI were calculated from the first derivative of the spectra obtained at the ratio of the signals at 350 nm to those at 330 nm. ΔTI of a complex was calculated as following: ΔTI,complex = TI,complex – TI,protein.
The in-built software version 1.1.5.668 (NanoTemper Technologies, Munich, Germany) and Microsoft Office Excel 365 (Microsoft Corp., Seattle, USA) was used for data analysis. Data was plotted with GraphPad Prism vers. 8.3.0 (GraphPad Software, San Diego, USA).
Purified FRS2_PTB or GB1_FRS2_PTB protein tagged with 6 × Histidine residues and the B1 immunoglobulin binding domain of the streptococcal protein G (GB1) were diluted in the protein buffer (100 mM sodium phosphate, 50 mM NaCl, 0.5 mM EDTA, 50 mM arginine, 1 mM TCEP, pH 7.0) to 30 μM, GB-1 to 40 μM. FGFR_PEP, compounds or paracetamol (PARA) as negative control were dissolved at 1 mM in the protein buffer supplemented with 10% DMSO. Compound and protein were mixed at 1:1 volume ratio yielding a final concentration of 15 μM and 20 μM for FRS2_PTB/GB1_FRS2_PTB and GB1, respectively, as well as 500 μM for FGFR_PEP or compounds. The mixture was incubated for 15 min. Each compound was measured in triplicates. Protein controls were measured in six replicates in the beginning. The quality of the screen was assessed by the Z-factor. nanoDSF validation studies were performed on a Prometheus® system in high sensitivity capillaries. Samples were heated with 1 °C/min from 20 to 95 °C. Each compound was measured in triplicates. GB1-FRS2_PTB and GB1 were diluted in the protein buffer (100 mM sodium phosphate, 50 mM NaCl, 0.5 mM EDTA, 50 mM arginine, 1 mM TCEP, pH 7.0) to 30 μM. Compounds 3.3, 3.4, 3.18 as well as the 3.18 analogues were dissolved in 100% DMSO at 50 or 100 mM and further diluted to 1 mM with a final DMSO-concentration of 100%. FGFR_PEP was dissolved at 1 mM in the protein buffer supplemented with 10% DMSO. Compound and protein were mixed at 1:1 volume ratio yielding final concentrations of 15 μM protein and 500 μM for the compounds. FGFR_PEP was measured against both GB1-FRS2_PTB and GB1, all other compounds only against GB1-FRS2_PTB. The mixture was incubated for 15 min before measurement. The data was analyzed for both the ratio of signals at 330 and 350 nm and at 350 nm alone. […]

GB1-FRS2_PTB [1] = biological target: T3, GB1-FRS2_PTB; assay: nanoDSF (thermal shift); 15 uM protein mixed with 500 uM FGFR_PEP, incubated 15 min; 100 mM sodium phosphate, 50 mM NaCl, 0.5 mM EDTA, 50 mM arginine, 1 mM TCEP, pH 7.0, with DMSO; shift of the inflection or melting temperature against protein alone; details: both partners purified
[2] = biological target: T4, FRS2_PTB (PTB domain of human FRS2); assay: as above; details: both partners purified
GB1-FRS2_PTB [3] = biological target: T3, GB1-FRS2_PTB; assay: MST; GB1-FRS2_PTB labelled with BLUE-NHS dye at 25 nM; FGFR_PEP in 1:1 serial dilution from 1 mM to 61.04 nM; 25 C; 100 mM sodium phosphate, 50 mM NaCl, 0.5 mM EDTA, 50 mM arginine, 1 mM TCEP, pH 7.0, with and without DMSO; MST trace analysis; details: both partners purified

Molecule | nanoDSF shift in the melting temperature (GB1-FRS2-PTB) | nanoDSF shift of the inflection point of the melting curve (ΔTm) (FRS2_PTB) | shift in the melting temperature (nanoDSF) (GB1-FRS2_PTB [1]) | shift of the inflection point of the melting curve (nanoDSF) [2] | Kd (GB1-FRS2_PTB [3])
HSQMAVHKLAKSIPLRRQVTVS [FGFR peptide, reference compound] | 10.5 ± 0.1 °C | 19 ± 0.1 °C |  |  | 
HSQMAVHKLAKSIPLRRQVTVS (also called FGFR1 peptide) [FGFR peptide (FGFR_PEP)] |  |  | 10.5 ± 0.1 °C | 19 ± 0.1 °C | 1000 ± 200 nM
